What was measured:
[1] = target: HMGB1 lacking the acidic C-tail (HMGB1ΔC, residues 1-185) (rat)
[2] = target: HMGB1 protein, wild-type, reduced (residues 1-214) (rat)

Sequence of HMGB1 lacking the acidic C-tail (HMGB1ΔC, residues 1-185) (rat) (P09429 1-185, stated change not applied): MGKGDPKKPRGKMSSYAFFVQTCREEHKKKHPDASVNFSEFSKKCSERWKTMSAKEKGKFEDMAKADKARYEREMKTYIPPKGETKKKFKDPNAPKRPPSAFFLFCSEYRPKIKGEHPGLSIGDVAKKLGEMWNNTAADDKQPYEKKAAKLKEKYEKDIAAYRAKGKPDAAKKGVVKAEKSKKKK

“Recombinant mouse histone H1° (referred to as histone H1) (from UniProt P10922 1-194) (natural protein)” was tested, and the inhibition of HMGB1ΔC-mediated DNA bending (ligase-mediated circularization of a 123-bp DNA; 50 nM reduced HMGB1ΔC, 1-15 nM H1) [1] was 40% and the inhibition of HMGB1-mediated DNA bending (ligase-mediated circularization of a 123-bp DNA; 50 nM reduced HMGB1, 1-15 nM H1) [2] was 90%.

— PMC4583294
